We go through one substance from patent US20190144550A1.

For this experiment, the target named is wild-type EGFR expressed on cells (human) (UniProt P00533). The experiment can be described thus: flow cytometry, A431 cells. On the technique in general: Flow cytometry measures light scatter and fluorescence of single cells or particles in a stream.

“FITC-conjugated goat anti-mouse Fc specific secondary antibody” gave an MFI of 185.
